Positions count from the first letter of the chain named.
T1: human ZnT1 with C-terminal FLAG tag (human, UniProt Q9Y6M5 1-507)
T1 construct: Commercial HEK293 lysate (Origene), SDS-denatured on immunoblots; not shown: C-terminal FLAG octapeptide
T1 sequence (looked up): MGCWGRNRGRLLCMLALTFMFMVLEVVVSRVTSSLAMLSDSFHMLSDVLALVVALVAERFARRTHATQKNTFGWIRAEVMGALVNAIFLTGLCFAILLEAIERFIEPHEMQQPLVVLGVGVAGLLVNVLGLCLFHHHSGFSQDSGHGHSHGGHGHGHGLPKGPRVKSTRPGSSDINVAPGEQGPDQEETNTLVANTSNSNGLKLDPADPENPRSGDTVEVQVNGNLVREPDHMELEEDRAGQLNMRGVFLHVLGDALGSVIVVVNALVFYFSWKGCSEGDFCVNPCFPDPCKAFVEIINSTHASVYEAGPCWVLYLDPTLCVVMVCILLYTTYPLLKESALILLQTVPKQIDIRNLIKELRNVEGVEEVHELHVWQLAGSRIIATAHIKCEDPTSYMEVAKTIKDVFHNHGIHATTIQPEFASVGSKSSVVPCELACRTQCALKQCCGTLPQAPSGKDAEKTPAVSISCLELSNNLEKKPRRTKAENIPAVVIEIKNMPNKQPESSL

T2: human ZnT7 with C-terminal FLAG tag (human, UniProt Q8NEW0 1-376)
T2 construct: Commercial HEK293 lysate (Origene), SDS-denatured on immunoblots; not shown: C-terminal FLAG octapeptide
T2 sequence (looked up): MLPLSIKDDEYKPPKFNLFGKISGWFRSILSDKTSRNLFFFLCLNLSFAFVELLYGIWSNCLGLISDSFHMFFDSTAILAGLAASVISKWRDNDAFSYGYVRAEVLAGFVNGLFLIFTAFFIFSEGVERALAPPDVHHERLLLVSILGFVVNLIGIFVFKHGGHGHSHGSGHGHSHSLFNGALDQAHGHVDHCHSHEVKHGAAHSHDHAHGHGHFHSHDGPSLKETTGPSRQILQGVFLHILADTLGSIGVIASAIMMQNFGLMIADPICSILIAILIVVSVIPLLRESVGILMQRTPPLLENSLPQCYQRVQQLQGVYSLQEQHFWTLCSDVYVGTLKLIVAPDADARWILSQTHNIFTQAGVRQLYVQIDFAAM

T3: human ZnT8-His (human, UniProt Q8IWU4-2 1-320, limits assumed)
T3 construct: Over-expressed in HEK293 cells, solubilized with DDM and immobilized on Ni-NTA plates (native or unfolded with 2% SDS), or SDS-denatured on immunoblots; also called human ZnT8 with C-terminal poly-histidine tag; not shown: C-terminal poly-histidine tag
T3 sequence (looked up): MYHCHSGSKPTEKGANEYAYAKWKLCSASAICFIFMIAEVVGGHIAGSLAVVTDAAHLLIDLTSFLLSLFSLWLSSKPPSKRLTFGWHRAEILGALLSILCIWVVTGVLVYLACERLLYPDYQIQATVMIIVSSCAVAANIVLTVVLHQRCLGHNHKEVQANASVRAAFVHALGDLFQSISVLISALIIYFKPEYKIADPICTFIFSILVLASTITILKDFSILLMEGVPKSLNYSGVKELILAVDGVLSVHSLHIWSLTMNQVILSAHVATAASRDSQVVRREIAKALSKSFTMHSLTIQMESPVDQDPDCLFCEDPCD

B1: mAb20 (antibody, V domains shown)
VH: QIQLVQSGPELKKPGETVKISCKASGYIFTNYPMHWVKQAPGKGLKWMGWINTYSGVPTHADDFKGRFAFSLETSANSAFLQINNLKNEDTATYFCTRSRITPTGGYAMDYWGQGTSVTVSS
VL: DVVMTQTPLSLPVSLGDQASISCRSSQSLVHSNGNTYLHWYLQKPGQSPNLLISKVSNRFSGVPERFSGSGSGTDFTLKISRVEAEDLGVYFCSQNTHVPWTFGGGTKLEIKR
notes: Mouse hybridoma mAb purified on protein A/G; In some assays it was labelled with Alexa Fluor 488 or terbium cryptate; also called monoclonal antibody mAb20; anti-ZnT8 mAb20
B2: mAb39 (antibody, V domains shown)
VH: QVQLQQPGAELVKPGASVKLSCKASGYSFTTYWMHWVKQRPGQGLEWVGDINPRNGRTNYNEKSKSKATLTVDISSSTVYMQVSSLTSEDSAVYYCAIWSGAMDYWGPGTSVTVSS
VL: B1 VL with A19P, R24K, S32N, N50K, S54Y, E65D, N96T, W101P
notes: Mouse hybridoma mAb purified on protein A/G; In some assays it was labelled with Alexa Fluor 555 or d2; also called monoclonal antibody mAb39; anti-ZnT8 mAb39

Tests used:
[1] = molecular target: T1, human ZnT1 with C-terminal FLAG tag; experiment: immunoblot of HEK293 lysates over-expressing FLAG-tagged ZnT homologs
Excerpt: (§1) FIG. 7A-7D. mAb binding specificities (FIG. 7A) mAb binding to ZnT8-His immobilized to Ni-NTA plate. Bound mAb20 (red) or mAb39 (magenta) was detected by an HRP-conjugated secondary antibody. Solid lines are least-squares fits of binding datapoints to a one-component binding process. Error bars are standard errors (n=8). (FIG. 7B) SDS-denatured mouse ZnT8-His (labeled as M) and human ZnT8-His (labeled as H) on immunoblots were detected by mAb20 or mAb39 as indicated. […] (FIG. 7C) Detection of endogenous human ZnT8 in EndoC-βH cells by mAb20 or […] immunoblotting. An equal amount of EndoC-βH lysate (5 μg total protein) was loaded to each lane. (FIG. 7D) Immunoblotting of HEK lysates with or with over-expression of a ZnT homolog as indicated. An approximately equal amount of total lysate protein (5 μg) was located to each lane, probed by either mAb20, mAb39, or anti-FALG antibody as indicated. FIG. 8. HTRF response to human ZnT8, mouse ZnT8 and human ZnT3.
(§2) Immunoblotting. SDS-solubilized cell lysate of EndoC-β cells or HEK293 cells over-expressing ZnT8 was subjected to SDS-PAGE and probed with a 1:3000 mAb20 or mAb39, followed by 1:3000 anti-mouse HRP-conjugated secondary antibody (GE Healthcare cat. #NA931V). A duplicated gel was Coomassie-stained to show an equal protein loading for each lane ([…]). To compare the mAb20 or mAb39 reactivities to different ZnT homolog, we used commercial HEK293 lysates with lentivirus-mediated over-expression of ZnT1, ZnT2, ZnT3, ZnT4, ZnT7, ZnT8, ZnT10, each is tagged by a Flag tag at the C-terminus (Origene, catalog nos. LY500001, LC412033, LC423751, LC401170, LY415673, LC428544, LC406320, and LC412886). Approximately equal amounts of total protein (5 μg) was loaded to each lane, and then probed with mAb20, mAb39, or anti-FLAG antibody (Origene, catalog no. TA50011-100) as above. The expression levels of ZnT homologs varied with ZnT1 most abundantly expressed.

[2] = molecular target: T2, human ZnT7 with C-terminal FLAG tag; experiment: as above
Excerpt: as §1, §2

human ZnT8-His = molecular target: T3, human ZnT8-His; experiment: ELISA titration on ZnT8-His immobilized on Ni-NTA plate; apparent binding affinity, one-component fit; DDM-solubilized human ZnT8 immobilized to Ni-NTA plate via His-tag; mAb titration
Excerpt: as §1
Binding specificities. […] Of note, the epitope-masking effect of ZnT8 immobilization weakened the apparent binding affinities of both mAbs as compared to the affinities determined by flow-cytometry, and such a weakening effect was more pronounced for mAb39, probably due to a closer proximity of the mAb39 epitope to the C-terminal His-tag. Next, we compared the immunoreactivities of mAbs to denatured ZnT8.

Row | Binder | binding result [1] | binding result [2] | Kd (human ZnT8-His) [nM]
1 | B1 | no binding | no binding | 2.5
2 | B2 | no binding | no binding | 17.6

From patent publication US20210238279A1 (Johns Hopkins, published 2021)
